How the values were obtained:
[1] = target: PDCoV RBD (receptor-binding domain of the porcine deltacoronavirus spike protein); test: SPR
[2] = target: pig aminopeptidase N ectodomain fused with the Fc domain of human IgG (pig (Sus scrofa)) (UniProt P15145); test: SPR; hFc-tagged APN from concentrated supernatant captured on a protein A sensor chip (>1000 RU); serially diluted RBD flowed over in PBST; BIAcore 8K, single-cycle mode; 1:1 Langmuir model; mean ± SD of three experiments
[3] = target: dog aminopeptidase N ectodomain fused with the Fc domain of human IgG (dog (Canis lupus familiaris)) (UniProt P79143); test: as above
[4] = target: chicken aminopeptidase N ectodomain fused with the Fc domain of human IgG (chicken (Gallus gallus)) (UniProt O57579); test: as above
Chain of chicken aminopeptidase N ectodomain fused with the Fc domain of human IgG (chicken (Gallus gallus)) (O57579 32-972): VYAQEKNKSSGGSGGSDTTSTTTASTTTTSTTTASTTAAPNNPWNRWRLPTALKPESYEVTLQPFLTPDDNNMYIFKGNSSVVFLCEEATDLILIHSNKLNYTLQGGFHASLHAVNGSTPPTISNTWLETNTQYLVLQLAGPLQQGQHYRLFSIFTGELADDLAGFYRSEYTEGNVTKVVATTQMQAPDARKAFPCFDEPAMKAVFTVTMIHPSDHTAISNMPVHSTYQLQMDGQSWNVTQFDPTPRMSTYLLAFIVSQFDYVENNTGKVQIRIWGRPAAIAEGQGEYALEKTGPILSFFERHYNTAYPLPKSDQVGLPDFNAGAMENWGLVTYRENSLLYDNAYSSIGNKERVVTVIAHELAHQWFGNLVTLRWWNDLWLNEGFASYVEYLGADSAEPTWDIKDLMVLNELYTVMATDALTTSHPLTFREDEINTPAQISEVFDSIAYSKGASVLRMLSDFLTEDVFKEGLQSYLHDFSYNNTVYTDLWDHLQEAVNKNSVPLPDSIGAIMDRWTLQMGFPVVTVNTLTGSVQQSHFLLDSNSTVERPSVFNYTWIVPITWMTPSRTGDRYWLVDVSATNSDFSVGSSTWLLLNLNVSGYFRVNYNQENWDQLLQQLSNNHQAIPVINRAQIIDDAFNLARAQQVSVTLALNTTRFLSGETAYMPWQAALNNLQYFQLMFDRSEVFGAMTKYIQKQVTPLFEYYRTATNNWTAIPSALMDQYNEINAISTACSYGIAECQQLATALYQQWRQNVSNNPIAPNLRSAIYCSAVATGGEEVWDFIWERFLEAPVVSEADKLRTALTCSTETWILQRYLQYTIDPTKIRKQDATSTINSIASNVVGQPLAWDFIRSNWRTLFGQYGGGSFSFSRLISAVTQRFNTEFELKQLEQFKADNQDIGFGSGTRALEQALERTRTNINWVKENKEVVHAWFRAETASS

Chain of pig aminopeptidase N ectodomain fused with the Fc domain of human IgG (pig (Sus scrofa)) (P15145 33-963): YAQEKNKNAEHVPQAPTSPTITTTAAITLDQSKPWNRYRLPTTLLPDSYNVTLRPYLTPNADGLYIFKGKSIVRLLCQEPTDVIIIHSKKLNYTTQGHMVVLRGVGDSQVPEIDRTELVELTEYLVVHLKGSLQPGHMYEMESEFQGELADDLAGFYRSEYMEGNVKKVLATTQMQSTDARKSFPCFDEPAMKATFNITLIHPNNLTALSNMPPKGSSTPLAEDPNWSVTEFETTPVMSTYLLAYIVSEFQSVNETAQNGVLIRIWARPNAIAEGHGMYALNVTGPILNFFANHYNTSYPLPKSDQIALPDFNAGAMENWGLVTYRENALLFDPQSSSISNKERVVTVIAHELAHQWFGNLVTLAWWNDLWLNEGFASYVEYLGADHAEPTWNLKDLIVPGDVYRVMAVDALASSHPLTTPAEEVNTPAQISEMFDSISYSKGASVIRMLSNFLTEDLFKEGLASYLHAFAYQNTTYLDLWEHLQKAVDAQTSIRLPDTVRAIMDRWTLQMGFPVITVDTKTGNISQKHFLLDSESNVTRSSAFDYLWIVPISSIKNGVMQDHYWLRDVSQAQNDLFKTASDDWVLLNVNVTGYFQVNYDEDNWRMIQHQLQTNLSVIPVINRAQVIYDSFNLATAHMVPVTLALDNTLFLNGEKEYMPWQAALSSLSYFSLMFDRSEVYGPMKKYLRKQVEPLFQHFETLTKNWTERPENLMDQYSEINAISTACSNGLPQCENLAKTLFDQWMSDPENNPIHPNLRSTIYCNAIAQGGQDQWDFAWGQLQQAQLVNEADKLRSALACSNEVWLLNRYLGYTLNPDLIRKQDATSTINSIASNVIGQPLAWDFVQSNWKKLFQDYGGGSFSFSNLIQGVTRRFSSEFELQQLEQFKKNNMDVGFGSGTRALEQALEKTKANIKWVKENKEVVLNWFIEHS

Substance: dog aminopeptidase N ectodomain fused with the Fc domain of human IgG (from UniProt P79143) H751R
- Kd [1]: 1.45 µM

Substance: TGEV RBD (receptor-binding domain of the transmissible gastroenteritis coronavirus spike protein) (domain or fragment)
- Kd [2]: 2.77 µM
- Kd [3]: 0.02 µM

Substance: dog aminopeptidase N ectodomain fused with the Fc domain of human IgG (from UniProt P79143) R325N
- Kd [1]: 10.5 µM

Substance: dog aminopeptidase N ectodomain fused with the Fc domain of human IgG (from UniProt P79143) Q753E
- Kd [1]: 0.783 µM

Substance: dog aminopeptidase N ectodomain fused with the Fc domain of human IgG (from UniProt P79143) Y797H
- Kd [1]: 1.22 µM

Substance: dog aminopeptidase N ectodomain fused with the Fc domain of human IgG (from UniProt P79143) T754N
- Kd [1]: 4.06 µM

Substance: dog aminopeptidase N ectodomain fused with the Fc domain of human IgG (from UniProt P79143) Y375F
- Kd [1]: 0.35 µM

Substance: dog aminopeptidase N ectodomain fused with the Fc domain of human IgG (from UniProt P79143) D750E
- Kd [1]: 0.148 µM

Substance: dog aminopeptidase N ectodomain fused with the Fc domain of human IgG (from UniProt P79143) E757D
- Kd [1]: 0.423 µM

Substance: PDCoV RBD (receptor-binding domain of the porcine deltacoronavirus spike protein) (domain or fragment)
- Kd [2]: 12.8 µM
- Kd [4]: 3.03 µM
- Kd [3]: 0.84 µM
